Experimental data from patent US20070184522A1, “Cell death modulation via antagonists of Fasl and Fas activation” (University of Pittsburgh of the Commonwealth System of …, priority 2004, published 2007).
“Also recorded” adds a separate entry of the source.

T1: Fas-Fc / Fas ligand binding (Mus musculus, UniProt P25446)
T1 construct: purchased R&D
T1 sequence (P25446 22-169 limits assumed): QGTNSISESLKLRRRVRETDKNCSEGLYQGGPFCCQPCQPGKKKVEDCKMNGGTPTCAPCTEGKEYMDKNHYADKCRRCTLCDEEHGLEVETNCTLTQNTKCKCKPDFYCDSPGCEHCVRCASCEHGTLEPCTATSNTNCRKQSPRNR

B1: alpha subunit of Met (AlphaMet), amino acid residues 1 to 306, His-tagged (receptor, mouse)
chain: MKAPTVLAPGILVLLLSLVQRSHGECKEALVKSEMNVNMKYQLPNFTAETPIQNVVLHGHHIYLGATNYIYVLNDKDLQKVSEFKTGPVLEHPDCLPCRDCSSKANSSGGVWKDNINMALLVDTYYDDQLISCGSVNRGTCQRHVLPPDNSADIQSEVHCMFSPEEESGQCPDCVVSALGAKVLLSEKDRFINFFVGNTINSSYPPGYSLHSISVRRLKETQDGFKFLTDQSYIDVLPEFLDSYPIKYIHAFESNHFIYFLTVQKETLDAQTFHTRIIRFCSVDSGLHSYMEMPLECILTEKRRKRHHHHHH

What was measured:
[1] = biological target: T1, Fas-Fc / Fas ligand binding; assay: Competition ELISA: coated Fas ligand, Fas-Fc added with increasing amounts of polypeptide; conditions: Fas ligand 1 μg/ml coated, Fas-Fc 1 μg/ml
Method: This antibody also recognizes Fas-Fc which is also tagged at the C-terminus by His. In FIG. 2b, a fixed amount of purified recombinant Fas-ligand was added to Fas-Fc in the absence or presence of increasing amounts of AlphaMet as indicated. Samples were subjected to pull down using proteinA agarose followed by Western blot using a polyclonal rabbit anti-FasL antibody. […] Fas ligand (1 μg/ml) was coated in the wells of a microtiter plate (triplicate wells) then 1 μg/ml of Fas-Fc was added in the absence or presence of an increasing amount of the indicated polypeptide. A 13 mer YLGA polypeptide derived from FasL also was synthesized and used. The control peptide was a scrambled 13 mer. Anti human IgM-HRP conjugates were used to detect the bound Fas-Fc. […] One-way ANOVA was carried out for determination of statistical significance. […] Cells (3×10^5) were plated in 24-well plates having Poly-L-Lysine pre-treated cover glass. 2 μg/ml of Fas ligand was added and the cells were incubated for 30 min on ice. Cells were then washed by PBS twice, and were subjected to immunostaining using anti-Fas ligand antibody and fluorescent microscopy. In Frame A, Fas ligand was not added, in B, only Fas ligand was added, in C-F, Fas ligand was added with different polypeptides as follows: AlphaMet, 12 mer YLGA, control peptide, and YLGA mutated AlphaMet, respectively.
ELISA. Synthesized polypeptides (Genemed Synthesis, Inc. South San Francisco, Calif.) were dissolved in water and diluted in the coating buffer (0.05M of Sodium Carbonate, 0.02% of Sodium Azide, pH 9.6) to a final concentration of 1 ug/ml. One hundred microliter aliquots were added to coat each well of a 96-well microtitre plate. The coated plates were then washed with PBS-Tween (0.5%) three times. The plates were blotted and dried by tapping upside down on tissue paper. They were blocked using 200 μl of 1% of BSA in PBS solution followed by a 2 hour incubation. Plates were washed another three times, Fas-Fc was added, and the plates were incubated for another 2 hours. The plates were washed three times and anti-human IgM Fc HRP conjugates were included at a final concentration of 1:20,000, and incubated for 1 hour. Plates were washed three times again and ready-to-use TMD was added and incubated for 30 minutes. The color reaction was stopped by 2M of Sulfuric Acid. Plates were applied to color read at a wave length of 450 nm.

[2] = system: Fas capping in Hepa 1-6 cells; assay: Fas capping of fluorescent protein tagged Fas in Hepa 1-6 cells; type: cell-based; conditions: for FasL-induced Fas capping: Hepa 1-6, FasL 1 μg/ml, AlphaMet 5 μg/ml or YLGA 12 mer 1 μg/ml, 30 minutes; for Jo2-induced Fas capping/clustering: Hepa 1-6, Jo2 100 ng/ml
Method: FIG. 3a presents data collected from Jurkat cells (1×10^6) treated with 2 μg/ml of Fas Ligand with or without AlphaMet for 30 minutes on ice. Cells were washed with PBS twice and then incubated with 2 mM of DTSSP in PBS for 30 minutes. The crosslinking process was stopped by 20 mM of Tris (pH 7.5) for another 30 minutes. Cells were spun down and washed with PBS twice and lyzed in RIPA buffer. Cell lysates were subjected to SDS-PAGE under non-reducing or reducing conditions (FIG. 3b) and Western blot analysis using the mouse monoclonal antibody against human Fas. FIG. 3c depicts the quantification of the data in FIG. 3a by densitometry. The data are the mean and SE from three different independent crosslinking and Western blot experiments. […] Frame A: Acceptor CFP-Fas image; Frame B: Acceptor pre-bleach CFP-Fas image; Frame C: Acceptor post-bleach image. Frame D: Donor YFP-Fas image; Frame E: Donor pre-bleach image; Frame F: […]. The CFP-Fas strength in the selected region obtained a gain of 19.3% efficiency in the presence of FasL for 15 minutes. No FRET was observed without FasL. […] FIG. 3e depicts the results of experiments in which CFP-tagged Fas or CFP control vector were transiently expressed in Hepa 1-6 Cells (3×10^5). Cells were treated with 1 μg/ml of Fas ligand or 100 ng/ml of Jo2 with or without 5 μg/ml of AlphaMet or 1 μg/ml of YLGA 12 mer for 30 minutes on ice. Cells were fixed and analyzed by fluorescence microscopy. Frame A: AlphaMet treatment only, no FasL; Frame B: Fas ligand treatment only; Frame C: Fas ligand and AlphaMet treatment; Frame D: Fas ligand and 12 mer YLGA; Frame E: Jo2 treatment only and Frame F: Jo2 and AlphaMet treatment.
Fluorescence protein tagged Fas molecules and Hepa 1-6 cells were used for these experiments. These cells were transiently co-transfected with CFP and YFP chimeric Fas expression vectors using the lipofectamine 2000 method (Invitrogen). After 24 hours of transfection, about 50% of the cells were fluorescing. The cells were treated by Fas-ligand in the presence or absence of AlphaMet for 30 minutes. Treated cells were then fixed with cold methanol and subjected to FRET analysis. Cells were considered positive if FRET efficiency was over 10%. FRET phenomenon was observed only in cells that were treated with Fas-ligand. […] In these experiments the percent of Fas capping was also determined.

Molecule | inhibition of FasL binding to Fas-Fc (ELISA) [1] | FasL-induced Fas capping [2] | Jo2-induced Fas capping/clustering [2]
YLGA [YLGA 4 mer] | lower, yet significant inhibition | – | –
HHIYLGATNYIY [12 mer] | significantly inhibited FasL binding | inhibited to the background level | reduced Jo2-induced Fas capping
B1 | – | inhibited to the background level | also inhibited; also recorded: reduced Jo2-induced Fas capping
